Results on one molecule are retold here after US7223392 (dated 2007).

Experiment [1] addresses p5E8G1. Put plainly: apparent Kd.
The target in experiment [2] is p5E8G1N-. Put plainly: apparent Kd.

B1: human CD23 (receptor)
chain: MELQVSSGFVCNTCPEKWINFQRKCYYFGKGTKQWVHARYACDDMEGQLVSIHSPEEQDFLTKHASHTGSWIGLRNLDLKGEFIWVDGSHVDYSNWAPGEPTSRSQGEDCVMMRGSGRWNDAFCDRKLGAWVCDRLATCTPPASEGSAESMGPDSRPDPDGRLPTPSAPLHS
Take B1: the Kd in experiment [1] and in experiment [2] was 0.7 nM each time.
